First the molecules themselves.
B1: M27-F11 (Fab, V domains shown)
VH: EVQLLESGGGLVQPGGSLRLSCAASGFTFSSYHMMWVRQAPGKGLEWVSSIYPSGGATMYADSVKGRFTISRDNSKNTLYLQMNSLRAEDTAMYYCARDGYHYGDYTYFQHWGQGTLVTVSS
VL: DIQMTQSPSFLSASVGDRVTITCRASQGISSYLAWYQQKPGKAPKLLIYAASSLQSGVPSRFSGSGSGTDFTLTISSLQPEDFATYYCQQSYNTLRTFGPGTKVDLK
notes: HC as printed runs into CH1
B2: M27-B01 (Fab, V domains shown)
VH: EVQLLESGGGLVQPGGSLRLSCAASGFTFSDYTMWWVRQAPGKGLEWVSSISSSGGITFYADSVKGRFTISRDNSKNTLYLQMNSLRAEDTAVYYCARSADTAMGGAFDIWGQGTMVTVSS
VL: not shown
notes: HC as printed runs into CH1
B3: M27-A10 (Fab, V domains shown)
VH: EVQLLESGGGLVQPGGSLRLSCAASGFTFSWYRMDWVRQAPGKGLEWVSSIWPSGGLTSYADSVKGRFTISRDNSKNTLYLQMNSLRAEDTAVYYCARGWAPGGDAFDIWGQGTMVTVSS
VL: DIQMTQSPSSLSASVGDRVTITCRASQSISAYLNWYQQKPGKAPQLLMYGVGSLQSGVPSRFSGSGSGTDFTLTISSLQPEDFATYFCQQGYTTPVTFGGGTKVEIK
notes: HC as printed runs into CH1
B4: M27-F04 (Fab, V domains shown)
VH: EVQLLESGGGLVQPGGSLRLSCAASGFTFSWYPMTWVRQAPGKGLEWVSSIGPSGGQTIYADSVKGRFTISRDNSKNTLYLQMNSLRAEDTAVYYCTTEYGDYGGGFDPWGQGTLVTVSS
VL: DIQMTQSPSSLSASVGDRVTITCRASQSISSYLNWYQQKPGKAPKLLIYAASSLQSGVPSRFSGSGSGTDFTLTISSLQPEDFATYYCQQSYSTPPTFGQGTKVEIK
notes: HC as printed runs into CH1
B5: M27-E03 (Fab, V domains shown)
VH: EVQLLESGGGLVQPGGSLRLSCAASGFTFSSYMMHWVRQAPGKGLEWVSGIYPSGGWTDYADSVKGRFTISRDNSKNTLYLQMNSLRAEDTATYYCARLVAGLDAFDIWGQGTMVTVSS
VL: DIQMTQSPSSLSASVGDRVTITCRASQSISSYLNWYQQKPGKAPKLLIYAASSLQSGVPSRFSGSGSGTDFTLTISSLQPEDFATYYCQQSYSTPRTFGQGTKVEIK
notes: HC as printed runs into CH1
B6: M27-G04 (Fab, V domains shown)
VH: EVQLLESGGGLVQPGGSLRLSCAASGFTFSAYYMVWVRQAPGKGLEWVSYISPSGGQTQYADSVKGRFTISRDNSKNTLYLQMNSLRAEDTAVYYCAREAISSSSFDYWGQGTLVTVSS
VL: DIQMTQSPSSLSASVGDRVTITCRASQRISYYLTWYQQKPGKVPKLLIYAASSLESGVPSRFSGSGSGTDFTLTISNLQPEDFATYYCQQAFSTPFTFGGGTKVEIK
notes: HC as printed runs into CH1
B7: M27-G01 (Fab, V domains shown)
VH: EVQLLESGGGLVQPGGSLRLSCAASGFTFSLYRMFWVRQAPGKGLEWVSSIWSSGGPTMYADSVKGRFTISRDNSKNTLYLQMNSLRAEDTAVYYCAREYPSTYYFDYWGQGTLVTVSS
VL: DIQMTQSPSSLSASVGDRVTITCRASQSISTYLNWYQQKPGKAPKLLIYGASSLQSGVPSRFSGSGSGTDFTLTISSLQPEDFTIYYCQQSYSDPYTFGQGTKLDIK
notes: HC as printed runs into CH1
B8: M27-G09 (Fab, V domains shown)
VH: EVQLLESGGGLVQPGGSLRLSCAASGFTFSEYDMAWVRQAPGKGLEWVSYIVSSGGFTSYADSVKGRFTISRDNSKNTLYLQMNSLRAEDTAVYYCTTWAGWIAAADYWGQGTLVTVSS
VL: DIQMTQSPSSVSASVGDRITITCRTRQSISNYLNWYQQKPGEPPKLLIFAASSLQSGVPSRFSGSGTGTEFTLTISSLQPEDLAIYYCQQSYDIPFTFGQGTKLEIK
notes: HC as printed runs into CH1
B9: M27-B12 (Fab, V domains shown)
VH: EVQLLESGGGLVQPGGSLRLSCAASGFTFSWYQMMWVRQAPGKGLEWVSSISPSGGITEYADSVKGRFTISRDNSKNTLYLQMNSLRAEDTAVYYCARDRSSGWYYYGMDVWGQGTTVTVSS
VL: QYELTQPPAVSVSPGQTATITCSGDKLGDEYAAWYQQKPGQSPVLVIYQDRKRPSGIPERFSGSNFGNTATLTITGTQVMDEADYYCQAWGKRNVVFGGGTKLTVL
notes: HC as printed runs into CH1

Here are results for nine molecules from patent US20260184815A1 (published 2026).

T1 sequence (P03952 20-390, chain 1 of 2): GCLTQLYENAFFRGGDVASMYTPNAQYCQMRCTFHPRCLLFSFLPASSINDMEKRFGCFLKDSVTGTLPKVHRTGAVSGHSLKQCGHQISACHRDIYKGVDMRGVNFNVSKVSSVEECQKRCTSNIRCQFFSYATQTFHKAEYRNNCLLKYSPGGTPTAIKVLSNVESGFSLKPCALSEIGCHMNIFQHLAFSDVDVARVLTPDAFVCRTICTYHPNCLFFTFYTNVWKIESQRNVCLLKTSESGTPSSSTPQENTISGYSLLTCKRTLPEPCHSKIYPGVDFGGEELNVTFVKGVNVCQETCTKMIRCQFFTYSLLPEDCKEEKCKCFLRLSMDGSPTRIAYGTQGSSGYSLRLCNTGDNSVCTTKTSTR
T1 sequence (P03952 391-638, chain 2 of 2): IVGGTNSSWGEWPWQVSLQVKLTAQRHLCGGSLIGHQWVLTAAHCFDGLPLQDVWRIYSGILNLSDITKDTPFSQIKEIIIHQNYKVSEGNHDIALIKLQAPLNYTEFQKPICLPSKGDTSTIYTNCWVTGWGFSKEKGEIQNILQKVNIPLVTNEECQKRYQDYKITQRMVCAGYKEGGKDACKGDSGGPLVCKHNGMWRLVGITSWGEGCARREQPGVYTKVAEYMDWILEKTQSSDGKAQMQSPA

The test concerns the target T1, human plasma kallikrein (human, UniProt P03952 20-390; P03952 391-638).
T1 construct: also called pKal; Human pKal
Kind of test: ELISA, biotinylated pKal signal over streptavidin background. An excerpt:
Abbreviations used: “T/B” is the ELISA signal obtained using of the “target” (biotinylated plasma kallikrein) divided by the ELISA signal of the “background” (streptavidin); both of which were coated on microtiter plates, “nd” is not determined. The symbol “q” refers to the amber suppressible stop codon (TAG), which is translated as glutamine (Q) in strains of E. coli such as the TG1 cells that were used to express the Fab fragments.
Background: An ELISA detects its analyte on a solid surface through an enzyme-linked reagent.
For the molecule B1, the “ELISA (T/B)” value was found to be 10 T/B.

As to B2, the “ELISA (T/B)” value amounted to 33.1 T/B.

For B3, the “ELISA (T/B)” value is 3.2 T/B.

For the molecule B4, the “ELISA (T/B)” value was determined as 10.5 T/B.

Turning to B5, the “ELISA (T/B)” value stood at 35.9 T/B.

For B6, the “ELISA (T/B)” value worked out at 4.1 T/B.

For the molecule B7, the “ELISA (T/B)” value was 31.4 T/B.

B8: the “ELISA (T/B)” value was determined as 2.2 T/B.

On to B9, for which the “ELISA (T/B)” value was 2.3 T/B.
